Data published in publication doi:10.1101/2020.04.20.050518.

Target: 50S ribosomal subunit
Experiment: cryo-EM 2D classification

stoichiometry N: 2
Substance: 50S ribosomal subunit (complex)
